Source: the RNAGym collection of RNA variant scans (doi:10.1073/pnas.2313332121)

B1: TPR t1 (parent)
chain: GACCAAUCUGCCCUCAGAGCUCGAGAACAUCUUCGGAUGCAGAGGAGGCAGGCUUCGGUGGCGCGAUAGCGCCAACGUCCUCAACCUCCAAUGCAUCCCACCACAUGAUGAUGCCUGAAGAGCCUUGGUUUUUUG

Variants of: B1
Test: polymerase ribozyme fitness, log enrichment relative to wild type (log ratio); higher = more active; in vitro selection for triplet polymerase activity
Outline: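 Only genotypes with ≥10 input reads and ≥1 read per output were kept after Illumina sequencing of input and output libraries. These libraries were PCR-built, transcribed mutants of each subunit of a heterodimeric triplet polymerase ribozyme, each put through one triplicate in vitro selection round with frozen incubation at −7 °C, gel excision of extended constructs, streptavidin-bead capture and RT-PCR. Fitness is a logarithmic ratio of genotype enrichment to wild-type enrichment, from inverse-variance-weighted replicate averages, with the logarithm in base 2.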

Variant	polymerase ribozyme fitness (log ratio)
GACCAAUCUGCCCUCAGAGCUCGAGAACAUCUUCGGAUGCAGAGGAGGCAGGCUUCGGUGGCGCGAUAGCGCCAACGUCCUCAACCUCCAAUGCAUCCCACCACAUUAUGAUGACUGAAGAGCCUUGGUUUUUUG [G107U C114A]	-7.09
GACCACUCUGCGCUCAGAGCUCGAGAACAUCUUCGGAUGCAGAGGAGGCAGACUUCGGUGGCUCGAUAGCGCCAACGUCCUCAACCUCCAAUGCAUCCCACCACAAGAUGAUGCCUGAAGAGCCUUGGUUUUUUG [A6C C12G G52A G63U U106A]	-2.76
GACCAAUCUGCCCUCAGUGCUCGAGAUCAUCUUCGGAUGCAGAGGAGGCAGGCUUCGGUGGCGCGAUAGCGCCAACGUCCUCAACCUCCAAUGCAUCACACCACAUGAUAAUGCCUGAAGAGCCUUGGUUUUUUG [A18U A27U C98A G110A]	-7.19
GACCAAUCUGCCCUCAGAGCUCGAGAACAUCUUCGGAUGCAGAGGAGGCAGGCUUCGGUGGCGCGAUAGGGCCAACGUCCUCAACCUCCAAUGCAUCCCUCCACAUGAUGAUGCCUGAAGAGCCUUGGUUUUUUG [C70G A100U]	-4.02
GACCAAUCUGCCCUCAGAGCUCGAGAACUUCUUCGGAUGCAGAGGAGGCAGGCUUCGGUGCCGCGAUAGCGCCAACGUCCUCAACCUCCAAUGCAUCCCACCACAUGAUUAUGCCUGAAGAGCCUUGGUUUUUUG [A29U G61C G110U]	-3.06
GACCAAUCUGCCCUCAGAGCUCGAGACCAUCUUCGGAUGCAGAGGAGGCAGGCUUCGGUGGUGCGAUAGCGCCAACGUCCUCAACCUCCAAUGUAUCCCACCACAUGAUGAUGCCUGAAGAGCCUUGGUUUUUUG [A27C C62U C94U]	-2.79
GACCAAUCUGCCCUCAGAGCUCGAGAAUAUCUUCGGAUGCAGAGGAGGCAGGCUUCGGUGGCGCGAUAGCGCCAACGUCCUCAACCUCCAAUGCAUCCCACCAUAUGAUGAUGCCUGAAGAGCCUUGGUUUUUUG [C28U C104U]	-2.27
GACCAAUCUGCCCUCAGAGCUCGAGAACAUCUUCGGAUGCAGAGGAGGCAGGCUUCGGUGGCGCGAUAGCGCUAACGUCCUCAACCUCCAAUGCAUCCCACCACAUGACGAUGCCUGAAGAGCCUUGGUUUUUUG [C73U U109C]	-3.63
GAACAAUCUGCCCUCAGAGCUCGAGAACAUCUUCGGAUGCAGAGGAGGCAGGCUUCGGUGGCGCGAUAGCGCCAACGUCCUCAACCUCCAAUGCAUCCCACCACGUGAUGAUGCCUGAAGAGCCUUGGUUUUUUG [C3A A105G]	-4.78
GACCAAUCUGCCCUCAGAGCUCGAGAACAUCUUCGGAUGCAGAAGAGGCAGGCUUCGGUGGCGCGAUAGCACAAACGUCCUCAACCUCCAAUGCAUCCCACCACAUGAUGAUGCCUGAAGAGCCUUGGUUUUUUG [G44A G71A C73A]	-2.85
GACCAAUCUGCCCUCAGAGCUCGAGAACAUCUUCGGAUGCAGAGGAGGCAGGCUUCGGUGGUGCGAUAGCGCCAACGUCCUCAGCCUCCAAUGCAUCCCAACACAUGAUGAUGCCUGAAGAGCCUUGGUUUUUUG [C62U A84G C101A]	-1.66
GACCAAUCUGCCCUCAGAGCUCGAGAACAUCUUCGGAUGCAGAGGAGGCAGGAUUCGGUGGCGCGAUAGCUCCAACGUCCUCAACCUCCAAUGCAUCCCACCACAUGAUGAUGCCUGAAGAGCCUUGCUUUUUUG [C53A G71U G128C]	-2.77
GACCAAUCUGCCCUCAGAGCUCGAGAACAUCUUCGGAUGCAGAGGAGGCAGGCUUCGAUGGCGCGAUAGCGCCAACGUCCUCAACCUCCAAUGCAUCCCACCACAUGAUGAUGCCUGAAGAACCUUGGUUUUUUG [G58A G122A]	-0.321
GACCAAUCUGCCCUCAGAGCUCGAGAACAUCUUCGGAUGCAGAGGAGGCAGGCUUCGGUGGCGCGAUAGAGCCAACGUCCUCAACCUCCAAUGCAUCCCACCAUAUGAUGAUGCCUGAAGAGCCUUGGUUUUUUG [C70A C104U]	-1.79
GAACAAUCUGCCUUCAGAGCUCGAGAACAUCUUAGGAUGCAGAGGAGGCAGGCUUCGCUGGCGCGAUAGCGCCAACGUCCUCAACCUCCAAUGCAUCCCACCACAUGAUGAUGCCUGAAGAGCCUUGGUUUUUUU [C3A C13U C34A G58C G135U]	-4.09
GACCAAUCUGCCCUCAGAGUUCGAGAACAUCUUCGGAUGAAGAGGAGGCAGGCUUCGGUGGCUCGAUAGCGCCAACGUCCUCAACCUCCAAUGCAUCCCACCACAUGAUGAUGCCUGAAGAGUCUUGGUUUUUUG [C20U C40A G63U C123U]	-3.75
GACCAAUCUGUGCUUAGAGCUCGAGAACAUCUUCGGAUGCAGAGGAGGCAGGCUUCGGUGGCGCGAUAGUGCCAACGUCCUCAACCUCCAAUGCAUCCCACCACAUGAUGAUGCCUGAAGAGCCUUGGUUUUUUG [C11U C12G C15U C70U]	-1.83
GACCAAUCUACCCUAAGAGCUCGAGAACAUCUUCGGAUGCAGAGGAGGCAGGCUUCGGUGGCGCGAUAGCGCCAACGUCCUCAACCUCCAAUGAAUCCCACCACAUGAUGAUGCCUGAAGAGCCUUGGUUUUUUG [G10A C15A C94A]	-3.08
GACCAAUCUGCCCUCAGAGCUCGAGAACAUCUUCGGAUGCAGACGAGGCAGGCUUCGGUGGCGCGAUAGCCCCAACGUCCUCACCCUCCAAUGCAUCCCACCACAUGAUGAUGCCUGAAGAGCCUUGGUUUUUUG [G44C G71C A84C]	-2.61
GACCAAUCUGCCCUCAGAGCUCGAGAACAUCUUCGGAUGCAGAGGAGGCAGGCUUCAGUGGCGCGAUAGCGACAACGUCCUCAACCUCCAAUGCAUCCCACCACAUGAUGAUGCCUGAAAAGCCUUGGUUUUUUG [G57A C72A G120A]	-0.828
GACCAAUCUGCCCUCAGAGCUCGAGAACAUCUUCGGAUGCAGAGAAGGCAGGCUUCGGUGGCGCGAUAGCGCCAACGUCUUCAACCUCCAAUGCAUCCCACCACAUGAUGAUGCAUGAAGGGCCUUGGUUUUUUG [G45A C80U C115A A121G]	0.603

Variant	polymerase ribozyme fitness (log ratio)
GACCAAUCUGCCCUCAGAGCUCGAGAACAUCUUAGGAUGCAGAGGAGGCAGGCUUCGGUGGCGCGAUAGCGCCAACGUCCUCAACCUCCAAUGCAUCCCACCACAUGAUGAUGCCUGAAGAGCCUUCGUUUUUUG [C34A G127C]	-3.8
GACCAAUCUGCCCUCAGAGCUCGAGAACAUCUUCGGAUGCAGAUGAGGCAGGCUUCGGUGGCGCGAUACCGCCAACGUCCUCAACCUCCAAUGCAUCCCACCACAUGAUGAUGCCUGAAGAGCCUUGGUUUUUUG [G44U G69C]	-0.825
GACCAAUCUGCCCUCAGAGCUCGAGAACAUCUUCGGAUGCAGAGGAGGCAGGCUUCGGUGGCGCGAUAGCGCCAGCGUCCUCAACCUCCAAUGCAUCCCACCACAUGAUGAUGCCUGAAGAGCCUUGGUUUUUUG [A75G]	0.101
GACCAAUCUGCACUCAAAGCUCGAGAACAUCUUCGGAUGCAGAGGAGGCAGGCUUCGGUGGCGCGAUAGCGCCAACGUCCUCAACCUCCAAUGCAUCCCACCACAUGAUGUUGCCCGAAGAGCCUUGGUUUUUUG [C12A G17A A111U U116C]	-6.09
GACCAAUCUGCCCUCAGAGCUCGAGAACAUCUUCGUAUGCAGAGGAGGCAGGUUUCGGUGACGCGAUAGCGCCAACGUCCUCAACCUCCAAUGCAUCCCACCACAUGAUGAUGCCUGGAGAGCCUUGGUUUUUUG [G36U C53U G61A A118G]	-1.48
GACCAAUCUGCCCUCAGAGCUCGAGAACAUCUUCGGAUGCAGAGGAGGCAGGCUUCGGUGGCGCGAUAGCGCCAACGUACUCAACCUCCAAUGCAUCCCACCACAUGAUGAUGCCUGAAGAGCCUUGGUUCUUUG [C79A U131C]	-0.838
GACCAAUCUGCCCUCAGAGCUCGAGAACAUCUUCGGAUGCAGAGGAGGCAGGCUUCGGCGGCGCGAUAGCGCCAACGUCCUCAACCUCCAAUGCAUCCCACCACAUGAUGACGCCUGAAGAGCCUUGGUUUUUUG [U59C U112C]	1.98
GACCAAUCUGCCCUCAGAGCUCGAGAACAUCUUCGGAUCCAGAGGAGUCAGGCUUCGGUGGUGCGAUAGCGCCAACGUCCUCAACCUCCAAUGCAUCCCACCACAUGAUGAUGCCUGAAGAGCCUUGGUUUUUUG [G39C G48U C62U]	-1.74
GACCAAUCUGCCCUCAGAGCUCGAGAACAUCUUCGGAUGCAGAGGAGGCAGGCUUCGGUGGCGCGAUAGCGCCAACGUCCUCUACCUCCAAUGCAUCCCACCAAAUGAUGAUGCCUGAAGAGCCUUGGUUUUUUG [A83U C104A]	-1.18
GACCAAUCUGCCCUCAGCGUUCGAGAACAUCUUCGGAUGCAGAGGAGGCAGGCUUCGGUGGCGCGAUAGCGCCAACGUCCUCAACCUCCAAUGCAUCCCACCACAUGAUGAUGACUGAAGAGCCUUGGUUUUUUG [A18C C20U C114A]	0.845
GACCAAUCUGCCCUCAGUGCUCGAGAACAUCUUCGGAUGCAGAGGAGGCAGGCUUCGGUGGCGCGAUAGCGCCAACGUCCUCAACCUCCAAUGCAUCCCACCACAUGAUGAUGCCUGAAGAGCCUUGGUUUUUUG [A18U]	-2.13
GACCAAUCUGCCCUCAGAGCUCGAGAACAUCUUCGUAUGCAGAGGAGGCAGUCUUCGGUGGCGCGAUAGCGCCAACGUCCUCAACCUCCAAUGCAUCCCACCACAUGAUGAUGCCUGAAGAGCCUUGGUUUUUUG [G36U G52U]	-2.2
GACCAAUCUGCCCUCAGAGCUCGAGAACAUCUGCGGAUGCAGAGGAGGCAGGCUUCGGGGGCGCGAUAGCGCCAACGUCCUCAACCUCCAAUGCAUCCCACCACAUGAUAAUGCCUGAAGAGCCUUGGUUUUUUG [U33G U59G G110A]	-5.54
GACCAAUCUGCCCUCAGAGCUCGAGAACAUCUUCGGAUGCAGAGGAGGCAGGCUUCGGUGGCGCGAUAGCGUCAACGUCCUCAACCUCCAAUGCAUCCCACCACAUGAUGAUACCUGAAGAGCCUUGGUUUUUUG [C72U G113A]	-1.48
GACCAAUCUGCCCUCAGAGCUCGAGACCAUCUUCGGAUGCAGAGGAGGCAGGCUUCGGUGGCGCGAUAGCGCCAACGUCCUCAACCUCCAAUGUAUCCCACCACAUGAUGAUGCCUGAAGAGCCUUGGUUUUUUG [A27C C94U]	-3.16
GACCAAUCUGCCCUCAGAGCUCGAGAACAUCUUCGGAUGCAGAGGAGGCAGGCUUCGGUGGCUCGAUAGCGCCAACGUCCUCAACCUCCAAUGCAUCCCACCACAUGAUGAUGCCUUAAGAGCCUUGGGUUUUUG [G63U G117U U129G]	-6.2
GACCAAUCUGACCUCAGAGCUCGAGAACAUCUUCGGAUGCAGAGGAGACAGGCUUCGGUGGCGCGAUAGUGCCAACGUCCUCAACCUCCAAUGCAUCCCACCACAUGAUGAUGUCUGAAGAGCCUUGGUUUUUUG [C11A G48A C70U C114U]	-6.22
GACCAAUCUGCCCUCAGAGCUCGAGAACAUCUUCGGAUGCAGAGGAGGCAGGCUUCGGUGGAGCGAUAGCGCCAACGGCCUCAACCCCCAAUGCAUCCCACCACAUGAUGAUGCCUGAAGAGCCUUGGUUUUUUG [C62A U78G U87C]	-1.47
GACCAAGCUGCCCUCAGAGCUCGAGAACAUCUUCGGAUGCAGAGGAGCCAGGCUUCGGUGGCGCGAUAGCGCCAACGUCCUCAACCUCAAAUGCAUCCCACCACAUGAUGAUGCCUGAAGAGCCUUGGUUUUUUG [U7G G48C C89A]	-2.97
GACCAAUCUGCCCUCAGAGCUCGAGAACAUCUUCGGAUGCAGAGGAGGCAGGCUUCGGUGGCGCGAUAGCGCCAACGUCCUCAACGUCGAAUGCAUCCCACCAUAUGAUGAUGCCUGAAGAGCCUUGGUUUUUUG [C86G C89G C104U]	-0.896
GACCAAUCUGCCCUCAGAGCUCGAGAACAUGUUCGGAUGCAUAGGAGGCAGGCUUCGGUGGCGCGAUAGCGGCAACGUCCUCAACCUCCAAUGCAUCUCACCACAUCAUGAUGCUUGAAGAGCCUUGGUUUUUUG [C31G G42U C72G C98U G107C C115U]	-6.04
